From patent publication US20260000087 come the findings set out here.

To fix the notation:
B1: aspartic protease represented by SEQ ID NO: 4 (protein)
chain: GEVASEPLTSYLDSQYFGKIYIGTPPQEFTVVFDTGSSDLWVPSVYCKSDACQNHQRFDPSMSSTFQNLGKPLSIQYGTGSMQGFLGYDTVTVSDIVDPQQTVGLSTQEPGDVFTYSEFDGILGLAYPSLASEYSVPVFDNMMNRHLVAQDLFSVYMDRNGQESMLTLGAIDPSYYTGSLHWVPVTLQKYWQFTVDSVTIGGVVVACDGGCQAILDTGTSMLVGPSSDILNIQMAIGATQNQYGEFDIDCGSLSSMPTVVFEINSRMYPLTPSAYTNQDQGFCTSGFQGENNSQQWILGDVFIREYYSVFDRANNRVGLAKAV
B2: aspartic protease or coagulant or chymosin represented by SEQ ID NO: 3 (protein)
chain: GEAAKVTDEPLTNYLDSQYFGKIYIGTPPQEFTVVFDTGSSNLWVPSVYCNSDACQNHHRFNPASSTTFRSTQEPLSIQYGTGSMEGVLGYDTVTVSQIVVPDQIFGLSTQEPGEIFTYSEFDGILGLGYPSLAEDQATPVFDNMMNKNLVAQDLFSVYMSRDSQGSMLILGAIDPSYYTGSLHWVPVTEQGYWQFSVDSITVNGQVVACEGGCQAILDTGTSLLVGPSYDIANIQSIIGATQGQYGEYDINCSNLSSMPTVVVHINGRQYPLPPSAYTNQDQGLCSSGFQSEGSDQLWILGDVFIREYYSVFDRGNNRVGLATAV
B3: bovine chymosin (CHY-MAX Plus from Chr. Hansen A/S) (protein)
chain: GEVASVPLTNYLDSQYFGKIYLGTPPQEFTVLFDTGSSDFWVPSIYCKSNACKNHQRFDPRKSSTFQNLGKPLSIHYGTGSMQGILGYDTVTVSNIVDIQQTVGLSTQEPGDVFTYAEFDGILGMAYPSLASEYSIPVFDNMMNRHLVAQDLFSVYMDRNGQESMLTLGAIDPSYYTGSLHWVPVTVQQYWQFTVDSVTISGVVVACEGGCQAILDTGTSKLVGPSSDILNIQQAIGATQNQYGEFDIDCDNLSYMPTVVFEINGKMYPLTPSAYTSQDQGFCTSGFQSENHSQKWILGDVFIREYYSVFDRANNLVGLAKAI
B4: camel chymosin (CHY-MAX M from Chr. Hansen A/S) (protein)
chain: GKVAREPLTSYLDSQYFGKIYIGTPPQEFTVVFDTGSSDLWVPSIYCKSNVCKNHHRFDPRKSSTFRNLGKPLSIHYGTGSMEGFLGYDTVTVSNIVDPNQTVGLSTEQPGEVFTYSEFDGILGLAYPSLASEYSVPVFDNMMDRHLVARDLFSVYMDRNGQGSMLTLGAIDPSYYTGSLHWVPVTLQQYWQFTVDSVTINGVAVACVGGCQAILDTGTSVLFGPSSDILKIQMAIGATENRYGEFDVNCGNLRSMPTVVFEINGRDYPLSPSAYTSKDQGFCTSGFQGDNNSELWILGDVFIREYYSVFDRANNRVGLAKAI
B5: aspartic protease or coagulant or chymosin represented by SEQ ID NO: 2 (protein)
chain: GKVARESLTNYLDCQYFGKIYIGTPPQEFTVVFDTGSSDLWVPSVYCNSDACQNHHRFDPSKSSTFQNMDKSLSIQYGTGSMQGLLGYDTVTVSNIVDRHQTVGLSTQEPGDVFTYSEFDGILGLAYPSLASEYSVPVFDNMMDRHLVAQDLFSVYMSRNEQGSMLTLGAIDRSYYTGSLHWIPVTVQEYWQFTVDRVTVDGVVVACDGGCQAILDTGTSMLVGPGSDIFNIQQAIGATEGQFGEFDIDCGRLSSMPTVVFEINGKKYPLPPSAYTSQDQGFCTSGFQGDYSSQQWILGDVFIREYYSVFDRASNRVGLAKAI
B6: aspartic protease or coagulant or chymosin represented by SEQ ID NO: 1 (protein)
chain: GKIAREPLTNYLDTEYFGKIQIGSPPQEFTVVFDTGSSDLWVPSVFCNSDACQNHHRFNPSKSSTFQNMNRPLSIQYGTGSMQGFLGYDTVTVSNIVVPHQTVGLSTQEPGDIFTYSEFDGILGLAYPSLASQYSVPVFDNMMKQHLVAQDLFSVYMNSQGQGSMLILGAIDPSYYVGALHWVPVTVQQYWQFTVDRITVDGVVVACDGGCQAILDTGTSLLVGPSSDILNIQTVIGATQGQYGEFDIDCGSLRSKPTVVFEINGREYPLPPTAYTNQDQGFCTSGFQGDDSQQWVLGDVFIREYYSVFDRVNNRVGLAKAI

The data set has as its target T1, alphaS1-casein, P02662.
T1 chain: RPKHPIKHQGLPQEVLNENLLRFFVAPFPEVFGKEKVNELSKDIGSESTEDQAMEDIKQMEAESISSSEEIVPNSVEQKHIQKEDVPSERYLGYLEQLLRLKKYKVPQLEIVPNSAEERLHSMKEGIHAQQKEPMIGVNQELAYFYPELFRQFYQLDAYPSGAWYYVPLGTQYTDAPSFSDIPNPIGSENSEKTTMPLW
Protein B1 showed a Degradation of intact alphaS1-casein (% of reference A) (% of reference A) of 105.
For B2, the Degradation of intact alphaS1-casein (% of reference A) (% of reference A) was 204.
On to B3, for which the Degradation of intact alphaS1-casein (% of reference A) (% of reference A) amounted to 100.
With B4 the figure was 38; with B5, 71.
With B6 the figure was 135.
